B1: N-terminal 3×-FLAG-tagged p52 (WT) [human] / XPB [human (endogenous in HEK293T)] (parent complex)
chain 1: MESTPSRGLNRVHLQCRNLQEFLGGLSPGVLDRLYGHPATCLAVFRELPSLAKNWVMRMLFLEQPLPQAAVALWVKKEFSKAQEESTGLLSGLRIWHTQLLPGGLQGLILNPIFRQNLRIALLGGGKAWSDDTSQLGPDKHARDVPSLDKYAEERWEVVLHFMVGSPSAAVSQDLAQLLSQAGLMKSTEPGEPPCITSAGFQFLLLDTPAQLWYFMLQYLQTAQSRGMDLVEILSFLFQLSFSTLGKDYSVEGMSDSLLNFLQHLREFGLVFQRKRKSRRYYPTRLAINLSSGVSGAGGTVHQPGFIVVETNYRLYAYTESELQIALIALFSEMLYRFPNMVVAQVTRESVQQAIASGITAQQIIHFLRTRAHPVMLKQTPVLPPTITDQIRLWELERDRLRFTEGVLYNQFLSQVDFELLLAHARELGVLVFENSAKRLMVVTPAGHSDVKRFWKRQKHSS
chain 2: MGKRDRADRDKKKSRKRHYEDEEDDEEDAPGNDPQEAVPSAAGKQVDESGTKVDEYGAKDYRLQMPLKDDHTSRPLWVAPDGHIFLEAFSPVYKYAQDFLVAIAEPVCRPTHVHEYKLTAYSLYAAVSVGLQTSDITEYLRKLSKTGVPDGIMQFIKLCTVSYGKVKLVLKHNRYFVESCHPDVIQHLLQDPVIRECRLRNSEGEATELITETFTSKSAISKTAESSGGPSTSRVTDPQGKSDIPMDLFDFYEQMDKDEEEEEETQTVSFEVKQEMIEELQKRCIHLEYPLLAEYDFRNDSVNPDINIDLKPTAVLRPYQEKSLRKMFGNGRARSGVIVLPCGAGKSLVGVTAACTVRKRCLVLGNSAVSVEQWKAQFKMWSTIDDSQICRFTSDAKDKPIGCSVAISTYSMLGHTTKRSWEAERVMEWLKTQEWGLMILDEVHTIPAKMFRRVLTIVQAHCKLGLTATLVREDDKIVDLNFLIGPKLYEANWMELQNNGYIAKVQCAEVWCPMSPEFYREYVAIKTKKRILLYTMNPNKFRACQFLIKFHERRNDKIIVFADNVFALKEYAIRLNKPYIYGPTSQGERMQILQNFKHNPKINTIFISKVGDTSFDLPEANVLIQISSHGGSRRQEAQRLGRVLRAKKGMVAEEYNAFFYSLVSQDTQEMAYSTKRQRFLVDQGYSFKVITKLAGMEEEDLAFSTKEEQQQLLQKVLAATDLDAEEEVVAGEFGSRSSQASRRFGTMSSMSGADDTVYMEYHSSRSKAPSKHVHPLFKRFRK
B2: N-terminal 3×-FLAG-tagged p52 (WT) [human] / p8 [human (endogenous in HEK293T)] (parent complex)
chain 1: B1 chain 1
chain 2: MVNVLKGVLIECDPAMKQFLLYLDESNALGKKFIIQDIDDTHVFVIAELVNVLQERVGELMDQNAFSLTQK

Variants of: B1
Experiment: FLAG-IP–Western; HEK293T nuclear extracts; n = 3, biological replicates; read off a plot

| Variant | response [Normalized Western Signal] |
| --- | --- |
| chain 1 MESTPSRGLNRVHLQCRNLQEFLGGLSPGVLDRLYGHPATCLAVFRELPSLAKNWVMRMLFLEQPLPQAAVALWVKKEFSKAQEESTGLLSGLRIWHTQLLPGGLQGLILNPIFRQNLRIALLGGGKAWSDDTSQLGPDKHARDVPSLDKYAEERWEVVLHFMVGSPSAAVSQDLAQLLSQAGLMKSTEPGEPPCITSAGFQFLLLDTPAQLWYFMLQYLQTAQSRGMDLVEILSFLFQLSFSTLGKDYSVEGMSDSLLNFLQHLREFGLVFQRKRKSRRYYPTRLAINLSSGVSGAGGTVHQPGFIVVATNYALYAYTESELQIALIALFSEMLYRFPNMVVAQVTRESVQQAIASGITAQQIIHFLRTRAHPVMLKQTPVLPPTITDQIRLWELERDRLRFTEGVLYNQFLSQVDFELLLAHARELGVLVFENSAKRLMVVTPAGHSDVKRFWKRQKHSS [chain 1 E310A, chain 1 R314A] | ~0.13 |

Variants of: B1
Experiment: FLAG-IP LC–MS (iBAQ); HEK293T nuclear extracts; n = 3, biological replicates; read off a plot

| Variant | response [Normalized Log2 iBAQ] |
| --- | --- |
| chain 1 MESTPSRGLNRVHLQCRNLQEFLGGLSPGVLDRLYGHPATCLAVFRELPSLAKNWVMRMLFLEQPLPQAAVALWVKKEFSKAQEESTGLLSGLRIWHTQLLPGGLQGLILNPIFRQNLRIALLGGGKAWSDDTSQLGPDKHARDVPSLDKYAEERWEVVLHFMVGSPSAAVSQDLAQLLSQAGLMKSTEPGEPPCITSAGFQFLLLDTPAQLWYFMLQYLQTAQSRGMDLVEILSFLFQLSFSTLGKDYSVEGMSDSLLNFLQHLREFGLVFQRKRKSRRYYPTRLAINLSSGVSGAGGTVHQPGFIVVATNYALYAYTESELQIALIALFSEMLYRFPNMVVAQVTRESVQQAIASGITAQQIIHFLRTRAHPVMLKQTPVLPPTITDQIRLWELERDRLRFTEGVLYNQFLSQVDFELLLAHARELGVLVFENSAKRLMVVTPAGHSDVKRFWKRQKHSS [chain 1 E310A, chain 1 R314A] | ~0.78 |

Variants of: B2
Experiment: as above

| Variant | response [Normalized Log2 iBAQ] |
| --- | --- |
| chain 1 MESTPSRGLNRVHLQCRNLQEFLGGLSPGVLDRLYGHPATCLAVFRELPSLAKNWVMRMLFLEQPLPQAAVALWVKKEFSKAQEESTGLLSGLRIWHTQLLPGGLQGLILNPIFRQNLRIALLGGGKAWSDDTSQLGPDKHARDVPSLDKYAEERWEVVLHFMVGSPSAAVSQDLAQLLSQAGLMKSTEPGEPPCITSAGFQFLLLDTPAQLWYFMLQYLQTAQSRGMDLVEILSFLFQLSFSTLGKDYSVEGMSDSLLNFLQHLREFGLVFQRKRKSRRYYPTRLAINLSSGVSGAGGTVHQPGFIVVATNYALYAYTESELQIALIALFSEMLYRFPNMVVAQVTRESVQQAIASGITAQQIIHFLRTRAHPVMLKQTPVLPPTITDQIRLWELERDRLRFTEGVLYNQFLSQVDFELLLAHARELGVLVFENSAKRLMVVTPAGHSDVKRFWKRQKHSS [chain 1 E310A, chain 1 R314A] | ~0.83 |
| chain 1 MESTPSRGLNRVHLQCRNLQEFLGGLSPGVLDRLYGHPATCLAVFRELPSLAKNWVMRMLFLEQPLPQAAVALWVKKEFSKAQEESTGLLSGLRIWHTQLLPGGLQGLILNPIFRQNLRIALLGGGKAWSDDTSQLGPDKHARDVPSLDKYAEERWEVVLHFMVGSPSAAVSQDLAQLLSQAGLMKSTEPGEPPCITSAGFQFLLLDTPAQLWYFMLQYLQTAQSRGMDLVEILSFLFQLSFSTLGKDYSVEGMSDSLLNFLQHLREFGLVFQRKRKSRRYYPTRLAINLSSGVSGAGGTVHQPGFIVVFTNYRLYAYTESELQIALIALFSEMLYRFPNMVVAQVTRESVQQAIASGITAQQIIHFLRTRAHPVMLKQTPVLPPTITDQIRLWELERDRLRFTEGVLYNQFLSQVDFELLLAHARELGVLVFENSAKRLMVVTPAGHSDVKRFWKRQKHSS [chain 1 E310F] | ~0.86 |
| chain 1 MESTPSRGLNRVHLQCRNLQEFLGGLSPGVLDRLYGHPATCLAVFRELPSLAKNWVMRMLFLEQPLPQAAVALWVKKEFSKAQEESTGLLSGLRIWHTQLLPGGLQGLILNPIFRQNLRIALLGGGKAWSDDTSQLGPDKHARDVPSLDKYAEERWEVVLHFMVGSPSAAVSQDLAQLLSQAGLMKSTEPGEPPCITSAGFQFLLLDTPAQLWYFMLQYLQTAQSRGMDLVEILSFLFQLSFSTLGKDYSVEGMSDSLLNFLQHLREFGLVFQRKRKSRRYYPTRLAINLSSGVSGAGGTVHQPGFIVVETNYRLAAATESELQIALIALFSEMLYRFPNMVVAQVTRESVQQAIASGITAQQIIHFLRTRAHPVMLKQTPVLPPTITDQIRLWELERDRLRFTEGVLYNQFLSQVDFELLLAHARELGVLVFENSAKRLMVVTPAGHSDVKRFWKRQKHSS [chain 1 Y316A, chain 1 Y318A] | ~0.83 |
| chain 1 MESTPSRGLNRVHLQCRNLQEFLGGLSPGVLDRLYGHPATCLAVFRELPSLAKNWVMRMLFLEQPLPQAAVALWVKKEFSKAQEESTGLLSGLRIWHTQLLPGGLQGLILNPIFRQNLRIALLGGGKAWSDDTSQLGPDKHARDVPSLDKYAEERWEVVLHFMVGSPSAAVSQDLAQLLSQAGLMKSTEPGEPPCITSAGFQFLLLDTPAQLWYFMLQYLQTAQSRGMDLVEILSFLFQLSFSTLGKDYSVEGMSDSLLNFLQHLREFGLVFQRKRKSRRYYPTRLAINLSSGVSGAGGTVHQPGFIVVETNYRLYAYTESELQIALIALFSEMLYAAPNMVVAQVTRESVQQAIASGITAQQIIHFLRTRAHPVMLKQTPVLPPTITDQIRLWELERDRLRFTEGVLYNQFLSQVDFELLLAHARELGVLVFENSAKRLMVVTPAGHSDVKRFWKRQKHSS [chain 1 R337A, chain 1 F338A] | ~0.84 |

From article PMC9557730 (2022)
